Patent publication US20120070451

Test system: Cavβ2 (Ca2+ beta2 channel accessory subunit), endogenous, mouse heart

recombinant active Akt
in vitro kinase assay: Cavβ2-immunoprecipitates from cardiac homogenates incubated with recombinant active Akt and [γ-32]ATP: A band corresponding to phosphorylated Cavβ2 was detected only in the presence of the kinase
